Data as given in patent publication US20240408202A1 (HEALTH RESEARCH, published 2024).

Tests used:
human CD3ε [1] = target: T1, human CD3ε (human, UniProt P07766 23-207); test: flow cytometry, BiTE supernatant on human T cells, anti-His tag detection
T1 construct: whole, on cells; The assay stained human T cells; also called hCD3e; CD3e
From the text: (§1) The DNA sequence corresponding to the G(EAAAK)3 (SEQ ID NO:9) linker ([…] (SEQ ID NO:8), followed by Mov19 scFv, 6× His Tag, Furin cleavage peptide, SGSG linker+P2A translational skipping sequence, and monomeric enhanced GFP (eGFP) reporter (to monitor transduction efficiency) was PCR amplified from an existing plasmid to generate overlapping DNA fragments amenable to assembly using NEBuilder (FIG. 7A). FR—B and FR-Bh sequences along with GFP reporter genes were inserted into the previously described retroviral vector¹ using NotI and PacI restriction sites, with DNA fragments assembled using NEBuilder HIFI DNA assembly (New England Biolabs). Plasmid sequences were confirmed by Sanger Sequencing, and retroviruses used to transduce human or mouse cells produced in PG13 or PLAT-E retroviral packaging cells lines, respectively. For murine studies, control T cells were either transduced with a retrovirus expressing a codon-optimized Luciferase (Luc2)-P2A-GFP gene and produced in PLAT-E cells or were Mock transduced. […] In all cases, cell culture supernatant from high-titer retrovirus producing clones was collected and used for viral transduction. For initial testing of BiTEs for antigen-specific binding, 293T cells were retrovirally transduced, followed by collection of 293T cell culture supernatants. […]

[2] = target: T2, human Folate Receptor alpha (FRα) (human, UniProt P15328 25-234); test: flow cytometry, BiTE supernatant on FRα+ cancer cells, anti-His tag detection
T2 construct: whole, on cells; also called hFRα; hFRa
T2 sequence (P15328 25-234): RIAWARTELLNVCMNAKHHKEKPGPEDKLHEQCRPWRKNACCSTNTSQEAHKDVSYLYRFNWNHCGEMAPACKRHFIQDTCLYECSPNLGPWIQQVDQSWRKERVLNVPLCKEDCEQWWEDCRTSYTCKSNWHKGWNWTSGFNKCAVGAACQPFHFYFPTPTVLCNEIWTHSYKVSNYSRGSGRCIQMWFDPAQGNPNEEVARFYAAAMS
From the text: as §1

mouse CD3ε [3] = target: T3, mouse CD3ε (mouse, UniProt P22646 22-189); test: flow cytometry on mouse CD8+ T cells, anti-His tag detection; staining control
T3 construct: whole, on cells; The assay stained mouse T cells; also called mCD3e
T3 sequence (P22646 22-189): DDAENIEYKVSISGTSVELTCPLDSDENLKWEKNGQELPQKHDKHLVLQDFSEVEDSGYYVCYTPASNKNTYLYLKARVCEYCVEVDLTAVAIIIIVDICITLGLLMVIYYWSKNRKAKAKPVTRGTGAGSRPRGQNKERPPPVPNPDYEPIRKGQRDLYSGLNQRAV
From the text: as §1

human CD3ε [4] = target: T1, human CD3ε; test: flow cytometry on human T cells, anti-His tag detection
From the text: as §1

mouse CD3ε [5] = target: T3, mouse CD3ε; test: flow cytometry, BiTE supernatant on mouse T cells, anti-His tag detection
From the text: as §1

[6] = target: T2, human Folate Receptor alpha (FRα); test: flow cytometry, BiTE supernatant on IE9-mp1-hFRa cells, anti-His tag detection
From the text: as §1

T1 sequence (P07766 23-207): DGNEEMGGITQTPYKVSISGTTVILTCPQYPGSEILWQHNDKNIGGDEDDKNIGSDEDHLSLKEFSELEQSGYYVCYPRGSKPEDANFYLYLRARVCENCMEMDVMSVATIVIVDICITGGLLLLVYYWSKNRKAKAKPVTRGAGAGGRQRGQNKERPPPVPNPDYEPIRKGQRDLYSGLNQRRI

B1: FR-Bh, human FRα targeted BiTE (hCD3e scFv UCHT1 x hFRα scFv MOv19) (bispecific antibody)
chain: GMDIQMTQTTSSLSASLGDRVTISCRASQDIRNYLNWYQQKPDGTVKLLIYYTSRLHSGVPSKFSGSGSGTDYSLTISNLEQEDIATYFCQQGNTLPWTFAGGTKLEIKGGGGSGGGGSGGGGSGGGGSEVQLQQSGPELVKPGASMKISCKASGYSFTGYTMNWVKQSHGKNLEWMGLINPYKGVSTYNQKFKDKATLTVDKSSSTAYMELLSLTSEDSAVYYCARSGYYGDSDWYFDVWGQGTTLTVFSGEAAAKEAAAKEAAAKDIELTQSPASLAVSLGQRAIISCKASQSVSFAGTSLMHWYHQKPGQQPKLLIYRASNLEAGVPTRFSGSGSKTDFTLNIHPVEEEDAATYYCQQSREYPYTFGGGTKLEIKGSTSGSGKSSEGKGQVQLQQSGAELVKPGASVKISCKASGYSFTGYFMNWVKQSHGKSLEWIGRIHPYDGDTFYNQNFKDKATLTVDKSSNTAHMELLSLTSEDFAVYYCTRYDGSRAMDYWGQGTTVTVSSGSGHHHHHH
notes: also called FRα-specific BiTE
B1: binds (human CD3ε [1]); binds [2]; no binding (mouse CD3ε [3]).

B2: FR-B, mouse FRα targeted BiTE (mCD3e scFv 145-2C11 x hFRα scFv MOv19), chimeric BiTE (bispecific antibody)
chain: GEVQLVESGGGLVQPGKSLKLSCEASGFTFSGYGMHWVRQAPGRGLESVAYITSSSINIKYADAVKGRFTVSRDNAKNLLFLQMNILKSEDTAMYYCARFDWDKNYWGQGTMVTVSSGGGGSGGGGSGGGGSDIQMTQSPSSLPASLGDRVTINCQASQDISNYLNWYQQKPGKAPKLLIYYTNKLADGVPSRFSGSGSGRDSSFTISSLESEDIGSYYCQQYYNYPWTFGPGTKLEIKGEAAAKEAAAKEAAAKDIELTQSPASLAVSLGQRAIISCKASQSVSFAGTSLMHWYHQKPGQQPKLLIYRASNLEAGVPTRFSGSGSKTDFTLNIHPVEEEDAATYYCQQSREYPYTFGGGTKLEIKGSTSGSGKSSEGKGQVQLQQSGAELVKPGASVKISCKASGYSFTGYFMNWVKQSHGKSLEWIGRIHPYDGDTFYNQNFKDKATLTVDKSSNTAHMELLSLTSEDFAVYYCTRYDGSRAMDYWGQGTTVTVSSGSGHHHHHH
notes: also called CONT-ENG; Cont-ENG
B2: no binding (human CD3ε [4]); binds (mouse CD3ε [5]); binds [6].
